# Publication PMC11134845
# Molecular target: HSV-2G gB ectodomain (recombinant glycoprotein B of Herpes simplex virus 2 strain G, aa 22-724) (Herpes simplex virus 2 (strain G))
# Assay: cryo-EM structure
substance,measurement,value
"HSV-2G gB ectodomain (recombinant glycoprotein B of Herpes simplex virus 2 strain G, aa 22-724) (domain or fragment)",stoichiometry N,3
